The record followed here is patent US20210188990A1 (published 2021).

A word on the Kd: it is the constant that tells how readily two partners part at equilibrium.

The test concerns the target LTBR (form used for the KD values not stated) (human, UniProt P36941 31-227, limits assumed). Kind of test: method and format not stated.

LTBR (form used for the KD values not stated), sequence (P36941 31-227 limits assumed): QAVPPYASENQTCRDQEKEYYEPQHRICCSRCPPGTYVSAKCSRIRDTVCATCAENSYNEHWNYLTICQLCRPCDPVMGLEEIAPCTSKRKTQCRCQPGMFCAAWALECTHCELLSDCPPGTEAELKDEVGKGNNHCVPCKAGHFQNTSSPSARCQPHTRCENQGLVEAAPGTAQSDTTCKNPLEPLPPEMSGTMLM

B1: SEQ ID NO 53: stapled scFv (VL3 Y36F_S49Y_F87Y) BHA10 (VH-VL), lower affinity variant (scFv)
scFv: QVQLVQSGAEVKKPGSSVKVSCKASGYTFTTYYLHWVRQAPGCGLEWMGWIYPGNVHAQYNEKFKGRVTITADKSTSTAYMELSSLRSEDTAVYYCARSWEGFPYWGQGTTVTVSSGGGSGGGSGCPPCGGGGDIQMTQSPSSLSASVGDRVTITCKASQNVGINVAWFQQKPGKAPKSLIYSASYRYSGVPSRFSGSGSGTDFTLTISSLQPEDFATYYCQQYDTYPFTFGCGTKVEIK
notes: scFv used in COVA14107
As for B1, the Kd was around 60 nM.

B2: SEQ ID NO 54: stapled scFv (VH_CDR1_Y33A) BHA10 (VH-VL), lower affinity variant (scFv)
scFv: QVQLVQSGAEVKKPGSSVKVSCKASGYTFTTYALHWVRQAPGCGLEWMGWIYPGNVHAQYNEKFKGRVTITADKSTSTAYMELSSLRSEDTAVYYCARSWEGFPYWGQGTTVTVSSGGGSGGGSGCPPCGGGGDIQMTQSPSSLSASVGDRVTITCKASQNVGINVAWYQQKPGKAPKSLISSASYRYSGVPSRFSGSGSGTDFTLTISSLQPEDFATYFCQQYDTYPFTFGCGTKVEIK
notes: scFv used in COVA14108
With B2, the Kd is around 600 nM.
